Reference: US20100062980A1 (NATIONAL UNIVERSITY OF SINGAPORE, published 2010)

Tests used:
[1] = molecular target: T1, cloned human β-adrenergic receptor subtype 2 (human, UniProt P07550 1-413)
[2] = molecular target: T2, cloned human β-adrenergic receptor subtype 1 (human, UniProt P08588 1-477)
[3] = molecular target: T1, cloned human β-adrenergic receptor …; assay: radioligand displacement ((-)-[3H]CGP-12177), Ki from IC50 by Cheng-Prusoff
[4] = molecular target: T2, cloned human β-adrenergic receptor …; assay: as above

T2 sequence (P08588 whole entry): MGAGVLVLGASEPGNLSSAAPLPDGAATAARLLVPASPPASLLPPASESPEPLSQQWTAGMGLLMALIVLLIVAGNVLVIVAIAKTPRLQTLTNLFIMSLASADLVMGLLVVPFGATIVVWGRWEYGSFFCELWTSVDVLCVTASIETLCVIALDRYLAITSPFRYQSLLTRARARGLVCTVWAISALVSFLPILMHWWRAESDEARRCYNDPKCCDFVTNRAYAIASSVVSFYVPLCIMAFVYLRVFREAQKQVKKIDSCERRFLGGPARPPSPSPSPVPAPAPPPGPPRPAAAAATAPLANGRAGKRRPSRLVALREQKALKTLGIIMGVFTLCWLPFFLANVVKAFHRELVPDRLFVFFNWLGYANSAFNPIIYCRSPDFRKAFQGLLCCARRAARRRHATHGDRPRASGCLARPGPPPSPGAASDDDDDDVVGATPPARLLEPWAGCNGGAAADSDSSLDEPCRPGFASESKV

B1: β-cardiotoxin (ligand)
chain: RKCLNTPLPLIYTTCPIGQDKCVKMTIKKLPSKYDVIRGCIDICPKSSADVEVLCCDTNKCNK
notes: also called beta-cardiotoxin; AY354198 protein
B1 gave an IC50 [1] of 5 µM, an IC50 [2] of 10 µM and a Ki [3] of 2.3 µM. For the same binder, the Ki [4] was 5.3 µM.
